From US20110230416A1

Columns and labels:
[1] = target: hLDLR of non-genetically modified human cells (human fibroblasts, HUVEC) (human) (UniProt P01130); test: FACS on HUVEC, competition; displaced: bacterial viruses expressing SEQ ID NO: 21
[2] = target: hLDLR of non-genetically modified human cells (human fibroblasts, HUVEC) (human) (UniProt P01130); test: FACS on HUVEC, competition; displaced: bacterial viruses expressing SEQ ID NO: 11

hLDLR of non-genetically modified human cells (human fibroblasts, HUVEC) (human), sequence (P01130 22-860): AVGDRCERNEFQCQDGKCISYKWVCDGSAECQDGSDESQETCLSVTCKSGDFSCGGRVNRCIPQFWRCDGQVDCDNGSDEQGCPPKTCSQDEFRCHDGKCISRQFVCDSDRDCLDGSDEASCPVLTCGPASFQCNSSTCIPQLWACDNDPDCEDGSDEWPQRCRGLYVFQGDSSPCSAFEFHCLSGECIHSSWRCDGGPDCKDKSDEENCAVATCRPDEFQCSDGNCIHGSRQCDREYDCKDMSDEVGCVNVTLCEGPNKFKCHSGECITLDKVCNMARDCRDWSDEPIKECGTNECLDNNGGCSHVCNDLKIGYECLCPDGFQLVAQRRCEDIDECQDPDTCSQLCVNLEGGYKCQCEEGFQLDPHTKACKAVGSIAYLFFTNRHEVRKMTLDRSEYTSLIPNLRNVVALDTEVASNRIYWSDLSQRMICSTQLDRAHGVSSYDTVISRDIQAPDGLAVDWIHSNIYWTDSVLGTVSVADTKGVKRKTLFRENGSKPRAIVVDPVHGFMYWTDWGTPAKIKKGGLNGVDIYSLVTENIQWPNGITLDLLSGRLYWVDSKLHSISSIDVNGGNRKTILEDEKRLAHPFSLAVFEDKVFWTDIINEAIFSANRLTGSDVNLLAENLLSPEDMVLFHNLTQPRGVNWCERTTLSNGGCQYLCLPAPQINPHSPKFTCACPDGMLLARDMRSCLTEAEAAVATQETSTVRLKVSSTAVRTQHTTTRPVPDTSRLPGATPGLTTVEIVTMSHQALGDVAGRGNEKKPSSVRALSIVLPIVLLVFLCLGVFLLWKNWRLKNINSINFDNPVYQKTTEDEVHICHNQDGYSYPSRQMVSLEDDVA

loss of signal in Q2 on adding LDL [1]: 85% | loss of signal in Q2 on adding LDL [2]: 17%
Substance: LDL, natural ligand of hLDLR
